Target: CK2α with para-azidophenylalanine at Tyr239 coupled with DBCO-Sulfo-Cy5 (Homo sapiens) (UniProt P68400)
Assay: MST; 0.1526 to 5,000 nM GST cleaved CK2β titrated to 30 nM Cy5-labelled CK2α; 50 mM Tris-HCl (pH 8), 500 mM NaCl, 500 μM CaCl2, 0.05% Tween 20, 0.5% (v/v) DMSO; 25 °C; Monolith NT.115

Row | Kd | Substance
1 | 15.8 nM | casein kinase II subunit beta (CK2β) NP_001311.3; p.Asp32His, GST cleaved (from UniProt P67870 1-215) (natural protein)
2 | 12.9 nM | casein kinase II subunit beta (CK2β), wild type, GST cleaved (from UniProt P67870 1-215) (natural protein)

From paper PMC9092267
